Test system: Psl (enriched carbohydrate purified from PAO1ΔwbpL/algD/pelA)
Assay: Psl capture binding assay (FORTEBIO OCTET 384)
Set-up: species or system Pseudomonas aeruginosa
Settings: FIG. 3K; for capture of Psl antigen by biosensor-bound antibody: antibody bound to aminopropylsilane biosensors
Experimental: To confirm that all of the antibodies bound to the same antigen, a Psl capture binding assay was performed using a FORTEBIO® OCTET® 384 instrument as described above. The antigen was proteinase K-treated enriched carbohydrate purified from PAO1ΔwbpL/algD/pelA (O-antigen-, alginate- and Pel exopolysaccharide-deficient). Individual antibodies were bound to aminopropylsilane biosensors followed by blocking and the addition of the enriched carbohydrate antigen. After washing to remove unbound antigen, binding of unlabelled mAbs to captured antigen was assessed.

| Molecule | reactivity of unlabelled mAb to captured Psl | capture of Psl antigen by biosensor-bound antibody |
| --- | --- | --- |
| WapR-001: anti-Psl antibody, VH SEQ ID NO: 5 and VL SEQ ID NO: 6 (antibody, V domains shown, WapR-001 VH; WapR-001 VL) VH: EVQLLESGGGLVQPGGSLRLSCSASGFTFSRYPMHWVRQAPGKGLEYVSDIGTNGGSTNYADSVKGRFTISRDNSKNTVYLQMSSLRAEDTAVYHCVAGIAAAYGFDVWGQGTMVTVSS VL: QAGLTQPASVSGSPGQSITISCTGTSSDIATYNYVSWYQQHPGKAPKLMIYEGTKRPSGVSNRFSGSKSGNTASLTISGLQAEDEADYYCSSYARSYTYVFGTGTELTVL | reacted | capable of capturing antigen |
| WapR-002: anti-Psl antibody, VH SEQ ID NO: 7 and VL SEQ ID NO: 8 (antibody, V domains shown, WapR-002 VH; WapR-002 VL) VH: QVQLVQSGGGLVQPGGSLRLSCSASGFTFSSYPMHWVRQAPGKGLDYVSDISPNGGSTNYADSVKGRFTISRDNSKNTLFLQMSSLRAEDTAVYYCVMGLVPYGFDIWGQGTLVTVSS VL: QTVVTQPASVSGSPGQSITISCTGTSSDVGGYNYVSWYQQHPGKAPKLMIYEVSNRPSGVSNHFSGSKSGNTASLTISGLQAEDEADYYCSSYTTSSTYVFGTGTKVTVL | reacted | capable of capturing antigen |
| WapR-003: anti-Psl antibody, VH SEQ ID NO: 9 and VL SEQ ID NO: 10 (antibody, V domains shown, WapR-003 VH; WapR-003 VL) VH: QMQLVQSGGGLVQPGGSLRLSCSASGFTFSSYPMHWVRQAPGKGLDYVSDISPNGGATNYADSVKGRFTISRDNSKNTVYLQMSSLRAEDTAVYYCVMGLVPYGFDNWGQGTMVTVSS VL: QTVVTQPASVSASPGQSITISCAGTSGDVGNYNFVSWYQQHPGKAPKLLIYEGSQRPSGVSNRFSGSRSGNTASLTISGLQAEDEADYYCSSYARSYTYVFGTGTKLTVL | reacted | capable of capturing antigen |
| WapR-007: antibody, VH SEQ ID NO: 13 and VL SEQ ID NO: 14 (antibody, V domains shown, WapR-007 VH; WapR-007 VL) VH: EVQLVQSGADVKKPGASVRVTCKASGYTFTGHNIHWVRQAPGQGLEWMGWINPDSGATSYAQKFQGRVTMTRDTSITTAYMDLSRLRSDDTAVYYCATDTLLSNHWGQGTLVTVSS VL: SSELTQDPAVSVALGQTVRITCQGDSLRSYYTNWFQQKPGQAPLLVVYAKNKRPPGIPDRFSGSSSGNTASLTITGAQAEDEADYYCHSRDSSGNHVVFGGGTKLTVL | Minimal reactivity | capable of capturing antigen |
